Reference: the DeepSol protein solubility set

experiment: soluble on expression in E. coli; label from the status in PepcDB or PDB records

Sequence	soluble on expression in E. coli
QNFAIPTSSLEKTLLIGDYLFVSKLSYGPRSPMTPLGVPLTHNTMPLTGGKSFSDKPLLPYKRLKGFGHVKEGDLVVFNFPAGDTVAVKQPNPDYYMWKKLVGREELWSNPDFYGEIVYRPVDRRDHYVKRCVGMPGQELSIRNNQIYIDGKEQRNPRNMQLNYLVRMSREMSVDLIDELGISYDDVRAASSEELKASVGSNLIDSASNQPQIIYHLPLTQGMLDKLQAEPSFVKAVEEPTPIGPLYPLEYETGWTRDNYGPIVIPAKGMTVRLTPLNLALYSRCIRNFEGNKLVQKADGTVLINGRPADSYTFKMDY	not soluble
QPPAPRMIADGYQLLSELGALDERKGLTQIGHQLARFPTDPRIARMIMAAKQENCLSEVLIIAAALSLQDPRDRPFEHQQAADQAHQPFRDDR	not soluble
QRRLEVKGVVNNITVYDDFAHHPTAITATIDALRAKVGQQRILAVLEPRSNTMKMGVHKHELATSLQDADSVFIYQPPTIEWQVSEVLANLAQPAISADDVDELVMRIVQQAKPNDHILIMSNGAFGGIHQKLLTALANAFLMPS	not soluble
QSLVKDFLSGVFMLIEDQYGVGDTIDVGDVVGTVEDVSLRLTTLRDINGTQWFVRNGEILRVGNFSQEYAVAIINVPIALDEKASDAIALIEKSVADEAQLQEVADVLLDDPVVDGVNSVGLDHMVIRTRVTTLPDQQWFIERKMRARILTDLQRNGIDTPYPEGIGAYRRLDDEE	not soluble
QTEVQKLTNAKAIITYLAEKFPLCFVLEGEAKPLKIGLFQDLAEALQDDERVSKTQLRQALRQYTSNWRYLYGCREGAVRVDLQGNPAGVLDAEHVAHAAQQLAEAKARFAEKRKQKLQLKKHNKKSIRVNLRIKTLKKRV	not soluble
QTGGSFFEPFNSYNSGTWEKADGYSNGGVFNCTWRANNVNFTNDGKLKLGLTSSAYNKFDCAEYRSTNIYGYGLYEVSMKPAKNTGIVSSFFTYTGPAHGTQWDEIDIEFLGKDTTKVQFNYYTNGVGGHEKVISLGFDASKGFHTYAFDWQPGYIKWYVDGVLKHTATANIPSTPGKIMMNLWNGTGVDDWLGSYNGANPLYAEYDWVKYTSN	soluble
QTGGSFYEPFNNYNTGLWQKADGYSNGNMFNCTWRANNVSMTSLGEMRLSLTSPSYNKFDCGENRSVQTYGYGLYEVNMKPAKNVGIVSSFFTYTGPTDGTPWDEIDIEFLGKDTTKVQFNYYTNGVGNHEKIVNLGFDAANSYHTYAFDWQPNSIKWYVDGQLKHTATTQIPQTPGKIMMNLWNGAGVDEWLGSYNGVTPLYAHYNWVRYTKR	soluble
QTPPRLVAIGGLSGSGKTTIAEALAAHVGAPPGARIVESDRIRKAMHGVPAETRLPDNAYRPDVSDRVYNEMTWRAGLILSEGGSVVADAVFDRPADRERIEKAARDRGIPFFGFWLEADPLVLWQRVSERKGGPSDATVDILSRQLQRKAG	not soluble
QTVARKCSLTGEWDNDLGSIMTIGAVNDNGEFDGTYITAVADNPGNITLSPLLGIQHKRASQPTFGFTVHWNFSESTSVFVGQCFVDRSGKEVLKTKWLQRLAVDDISDDWIATRVGNNDFTRQHTVEE	soluble
QVQLQESGGGLVQAGGSLRLSCTASRRTGSNWCMGWFRQLAGKEPELVVALNFDYDMTYYADSVKGRFTVSRDSGKNTVYLQMNSLKPEDTAIYYCAARSGGFSSNRELYDGWGQGTQVTVSS	soluble
QVQLQQSGAELMKPGASVKISCKATGYTFSSFWIEWVKQRPGHGLEWIGEILPGSGGTHYNEKFKGKATFTADKSSNTAYMQLSSLTSEDSAVYYCARGHSYYFYDGDYWGQGTSVTVSSASTKGPSVFPLAPSSKSTSGGTAALGCLVKDYFPEPVTVSWNSGALTSGVHTFPAVLQSSGLYSLSSVVTVPSSSLGTQTYICNVNHKPSNTKVDKKVEPK	soluble
QVQLQQSGAELVKPGASVKMSCKASGYTFTTYPIEWMKQNHGKSLEWIGNFHPYSDDTNYNEKFKGKAKLTVEKSSSTVYLEFSRLTSDDSAVYYCAIHYGSAYAMDYWGQGTSVTVSS	soluble
QVQLQQSGPELVKPGALVKISCKASGYTFTNYDINWVKQRPGQGLEWIGWIYPGDGSTMYNEKFKGKATLTADKSSSTAYMQLSSLTSENSSVYFCARLDGNYGGWFAYWGQGTSVTVSSAKTTPPSVYPLAPVCGDTTGSSVTLGCLVKGYFPEPVTVTWNSGSLSSGVHTFPAVLQSDLYTLSSSVTVPSSTWPSETVTCNVAHPASSTKVDKKIVP	soluble
QVQLQQSGPGLVKPSQTLSLTCAISGDSVSSNSAAWNWIRQSPSRGLEWLGRTYYRSKWFNDYAVSVQSRITINPDTSKNQFSLQLNSVTPEDTAVYYCARGIVFSYAMDVWGQGTTVTVSSASTKGPSVFPLAPSSKSTSGGTAALGCLVKDYFPEPVTVSWNSGALTSGVHTFPAVLQSSGLYSLSSVVTVPSSSLGTQTYICNVNHKPSNTKVDKKVEPKSCAADEVDHHHHHH	soluble
QVQLQQSGSELMKPGASVQISCKATGYTFSDYWIEWVKQRPGHGLEWIGDILCGTGRTRYNEKLKAMATFTADTSSNTAFMQLSSLTSEDSAVYYCARSASYGDYADYWGHGTTLTVSSAKTTPPSVYPLAPGCGDTTGSSVTLGCLVKGYFPESVTVTWNSGSLSSSVHTFPALLQSGLYTMSSSVTVPSSTWPSQTVTCSVAHPASSTTVDKKLEPS	soluble
QVQLVESGGGLVQPGGSLRLSCAASGFTFSSYAMSWFRQAPGKEREIVSAVSGSGGSTYYADSVRGRFTISRDNSKNTLYLQMNSLRAEDTAVYYCAREPRIPRPPSFDYWGQGTLVTVSS	soluble
QVTLKESGPTLVKPTQTLTLTCTFSGFSLRTSRVGVSWIRQPPGKALEWLAHIYWDDDKRYNPSLKSRLTISKDTSKNQVVLTMTNMDPVDTATYYCARRGFYGRKYEVNHFDYWGQGTTVTVSSASTKGPSVFPLAPSSKSTSGGTAALGCLVKDYFPEPVTVSWNSGALTSGVHTFPAVLQSSGLYSLSSVVTVPSSSLGTQTYICNVNHKPSNTKVDKKVEPKSCG	soluble
RDFNNLTKGLCTINSWHIYGKDNAVRIGEDSDVLVTREPYVSCDPDECRFYALSQGTTIRGKHSNGTIHDRSQYRALISWPLSSPPTVYNSRVECIGWSSTSCHDGKTRMSICISGPNNNASAVIWYNRRPVTEINTWARNILRTQESECVCHNGVCPVVFTDGSATGPAETRIYYFKEGKILKWEPLAGTAKHIEECSCYGERAEITCTCRDNWQGSNRPVIRIDPVAMTHTSQYICSPVLTDNPRPNDPTVGKCNDPYPGNNNNGVKGFSYLDGVNTWLGRTISIASRSGYEMLKVPNALTDDKSKPTQGQTIVLNTDWSGYSGSFMDYWAEGECYRACFYVELIRGRPKEDKVWWTSNSIVSMCSSTEFLGQWDWPDGAKIEYFL	soluble
RDISVMVLLDLSESTNNQVNGQEFTVLDLTRQATVLLADAINRIGDPFAIHGFCSDGRHDVEYYRFKDFDQPYNEVPKMRLAGMTGQLSTRMGAAIRHASHFLKLQRAAKKLLLVITDGEPADVDVRDPQYLRFDTKKAVEEAGRSGILTYCMSLDPRADQYVSRIFGMRNYMVVDHVERLPEKLPMLYAGLTR	not soluble
RDTSVVVEHTSANPTGPVHVGRARNPIIGDAVARVLDYAGYDVDRHYYVNDAGRQIAVFTWAYETFDEDDLPEPERESPEYEMVRYYRKGNTILEDGDPDEVEAAEAEVQSILQGLEDGDEETYERVAEVVDTVLGGMQNTLGRLPAEFDEFVKETKFMRNGDTDDLVDRLKGLDCAVYEEDAWQLDLPDFEKNLVFLRSDGTSLYTTRDLAHHEWKFDTYDRAVTVLGEDHKLQADQLAAALELLDNDTDQLRQVFYSWVNLPEGGMSTREGTGIDLDDLLDEAIDRAREEVESRLDDRTRGDLDEDDIDRIARQVGIGAVRYDIVSKQPTKGITFEWDRALDFEAQSAPYVQYV	not soluble
RFLSIKTSWEDYFLEDDPMIIKTEEFKSVFGNDNYAAVLTDCDNTFTKENLELIRRLSNEMLDSISYAEKITSLTDIEFMIGNEEGMAIEQIVPEEIPSDSAGLAEIRRKAFLKPYIADRLVSKDGTLTWILLKLNPFPSDSVWNKGKGAVAPEMVVGRELEHIIRKPEYAALHPKGAGMPYMTDRKMAWVNRE	not soluble
RKKPVSQSLEFPTRYSPYRPYRCVHQGCFAAFTIQQNLILHYQAVHKSDLPAFSAEVEEE	soluble
RLHSDNVYLIENNVFGTTCARVGCMPSKLLIAAAEARHHALHTDPFGVHLDKDSIVVNGEEVMQRVKSERDRFVGFVVADVEEWPADKRIMGSAKFIDEHTVQIDEHTQITAKSFVIATGSRPVILPQWQSLGNRLIINDDVFSWDTLPKRVAVFGPGVIGLELGQALHRLGVKVE	not soluble
RLSQRLIEPVSALKVQLDQHQGDTSQKFIVPEGSAKEFQTLASQLNEYRSQINQVIKREQAFARYASHELRTPLTVMKGSSSLLARSPSTPFQERQIGRIQDATQQMSTMVDALLGLVRYERNTDDSPVRTISEQELHNIVALSQAQADEKSLEFNVQILGHPQTKATTAVLNITLSNLIRNGIAATSAGTIHITMTDTTLSVKDEGEGFSSVPDAEGHGLGLMIVDDLCRRYGWQFTIDTHSEGGCEAVIDLSSEHHEACSEQLPQH	not soluble
RMEIVKIPVVVHVVWNEEEENISDAQIQSQIDILNKDFRKLNSDVSQVPSVWSNLIADLGIEFFLATKDPNGNQTTGITRTQTSVTFFTTSDEVKFASSGGEDAWPADRYLNIWVCHVLKSEIGQDILGYAQFPGGPAETDGVVIVDAAFGTTGTALPPFDKGRTATHEIGHWLNLYHIWGDELRFEDPCSRSDEVDDTPNQADPNFGCPSYPHVSCSNGPNGDMFMNYLDYVDDKCMVMFTQGQATRVNACLDGPRSSFLA	soluble
RNLSGQSRTVGVEYVSANPTGPLHVGHGRAAAIGDCLARLLEANGWNVKREFYYNDAGVQIENLVRSVQARARGLKPGDALWPTDAYNGEYIADIAKAYLAGDSINMVDTIITSTKNVDDTAAIHHFAVNYLRNEQNHDLAAFNVDFDIYFLESSLYKDGKVEETVQKLINSGHTYEEGGALWLKSTHFGDDKDRVMRKSDGSYTYFVPDIAYHLSKWQRGYERAITELGADHHGSLARVHAGLQALEIGIPPGWPEYVLHQMVTVMRGGEEVKLSKRSGGYVTLRDLIEETSTDATRWFLIARKPDSQLTFDIDLARQKSNDNPVFYVQYAYARVCSLMHQAHE	not soluble
RNVDAALFGMISLYAQTKVIDTIIYGSDAGSKASIITAHPDEIAGRIIRELDRSATILPGKGAYSGRETSVVLCTVRKSEFARLKRIIHETDENAFVMVTETTEVIGLGFKDFSDAVQ	not soluble
RPIGIYEKATPTHCTWLERLNFAKELGFDFVEMSIDERDERLARLDWSKEERLEVVKAIYETGVRIPSICFSGHRRYPLGSKDPVLEEKSLELMKKCIELAQDLGVRTIQLAGYDVYYEEKSPQTRQRFIKNLRKACDWAEEAQVVLAIEIMDDPFISSIEKYLAIEKEIDSPFLFVYPDIGNVSAWHNDIYSEFYLGHHAIAALHLKDTYAVTESSKGQFRDVPFGQGCVKWEEAFDILKETNYNGPFLIEMWSENCETVEETRAAIQEAQAFLYPLIKKAGLM	not soluble
